The values that follow come from patent US20070232520A1 (YEDA RESEARCH AND DEVELOPMENT, published 2007).

B4: full-length intracellular domain of the p55-TNF-R (p55IC) (receptor)
chain: RYQRWKSKLYSIVCGKSTPEKEGELEGTTTKPLAPNPSFSPTPGFTPTLGFSPVPSSTFTSSSTYTPGDCPNFAAPRREVAPPYQGADPILATALASDPIPNPLQKWEDSAHKPQSLDTDDPATLYAVVENVPPLRWKEFVRRLGLSDHEIDRLELQNGRCLREAQYSMLATWRRRTPRREATLELLGRVLRDMDLLGCLEDIEEALCGPAALPPAPSLLR
notes: the GAL4 part is not written as a piece; also called pGBT9-IC55; IC55

The target of data set [1] is B4. The experiment in a line: yeast two-hybrid (SFY526), various baits.
Data set [2] deals with T1, 55.11 protein, partial (residues 309-900, as originally isolated), GAL4 activation-domain hybrid (human, UniProt Q13200 318-899). The experiment in a line: yeast two-hybrid beta-galactosidase filter assay (SFY526), FIG. 13.
Data set [3] deals with T1, 55.11 protein, partial (residues …). In words: yeast two-hybrid, colony colour (lacZ/X-gal).
Data set [4] addresses T2, 55.11 construct 457-900 (N-terminal truncation) (human, UniProt Q13200 466-899).
T2 construct: GAL4 part not written
The experiment in a line: yeast two-hybrid beta-galactosidase filter assay (SFY526), FIG. 13.

In data set [5] the target is T3, 55.11 construct 309-680 (C-terminal truncation) (human, UniProt Q13200 318-689).
T3 construct: GAL4 part not written
The data set is described as above.

For data set [6], the target named is T4, 55.11 protein, partial (residues 309-900), VP16 activation-domain hybrid (human, UniProt Q13200 318-899).
T4 construct: the VP16 part is not written; also called VP16AD
The data set is described as above.

Data set [7] addresses B4. In words: yeast two-hybrid (SFY526), liquid beta-galactosidase assay.
The target of data set [8] is T5, lamin (irrelevant protein).
T5 construct: Two-hybrid control bait; also called pACT-Lamin
Described as above.

For data set [9], the target named is T6, pGBT9 (vector alone) (UniProt P04386 1-147).
T6 construct: Negative control bait; also called empty bait vector; empty Gal4 (pGBT9) vector
The data set is described as above.

Data set [10] deals with T6, pGBT9 (vector alone). In words: yeast two-hybrid, colony colour (lacZ/X-gal).
Data set [11] concerns the molecule itself. In words: yeast two-hybrid beta-galactosidase test (FIG. 14).

T1 sequence (Q13200 other isoform, or with tags, fused parts or gaps): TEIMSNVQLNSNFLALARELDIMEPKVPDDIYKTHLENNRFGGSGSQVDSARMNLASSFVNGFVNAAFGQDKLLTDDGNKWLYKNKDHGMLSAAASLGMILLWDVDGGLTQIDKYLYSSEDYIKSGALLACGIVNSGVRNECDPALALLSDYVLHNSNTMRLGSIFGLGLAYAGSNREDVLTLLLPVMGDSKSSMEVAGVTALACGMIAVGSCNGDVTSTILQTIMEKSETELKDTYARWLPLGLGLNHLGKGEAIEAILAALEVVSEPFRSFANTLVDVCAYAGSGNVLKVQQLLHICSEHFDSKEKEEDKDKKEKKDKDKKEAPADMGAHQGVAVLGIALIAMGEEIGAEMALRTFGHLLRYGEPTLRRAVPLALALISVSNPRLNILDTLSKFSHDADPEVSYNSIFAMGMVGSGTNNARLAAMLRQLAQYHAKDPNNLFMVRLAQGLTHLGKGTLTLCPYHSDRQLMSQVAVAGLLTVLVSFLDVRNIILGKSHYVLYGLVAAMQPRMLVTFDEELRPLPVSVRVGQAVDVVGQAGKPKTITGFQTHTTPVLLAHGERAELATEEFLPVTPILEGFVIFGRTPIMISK
T6 sequence (P04386 1-147 limits assumed): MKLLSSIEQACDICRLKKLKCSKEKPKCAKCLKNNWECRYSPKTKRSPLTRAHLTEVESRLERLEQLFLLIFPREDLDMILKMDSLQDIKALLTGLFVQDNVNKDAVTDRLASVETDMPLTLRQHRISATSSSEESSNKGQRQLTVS
T3 sequence (Q13200 318-689): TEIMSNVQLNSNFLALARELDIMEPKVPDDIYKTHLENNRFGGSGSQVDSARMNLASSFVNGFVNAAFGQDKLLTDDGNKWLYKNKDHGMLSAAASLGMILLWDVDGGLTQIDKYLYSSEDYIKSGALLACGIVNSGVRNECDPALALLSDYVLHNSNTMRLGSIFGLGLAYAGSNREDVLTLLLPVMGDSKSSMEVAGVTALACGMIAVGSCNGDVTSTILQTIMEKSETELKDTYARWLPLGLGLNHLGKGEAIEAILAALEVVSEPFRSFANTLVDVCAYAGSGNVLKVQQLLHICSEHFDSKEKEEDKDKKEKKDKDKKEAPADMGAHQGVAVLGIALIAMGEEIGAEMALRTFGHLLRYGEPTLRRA
T2 sequence (Q13200 other isoform, or with tags, fused parts or gaps): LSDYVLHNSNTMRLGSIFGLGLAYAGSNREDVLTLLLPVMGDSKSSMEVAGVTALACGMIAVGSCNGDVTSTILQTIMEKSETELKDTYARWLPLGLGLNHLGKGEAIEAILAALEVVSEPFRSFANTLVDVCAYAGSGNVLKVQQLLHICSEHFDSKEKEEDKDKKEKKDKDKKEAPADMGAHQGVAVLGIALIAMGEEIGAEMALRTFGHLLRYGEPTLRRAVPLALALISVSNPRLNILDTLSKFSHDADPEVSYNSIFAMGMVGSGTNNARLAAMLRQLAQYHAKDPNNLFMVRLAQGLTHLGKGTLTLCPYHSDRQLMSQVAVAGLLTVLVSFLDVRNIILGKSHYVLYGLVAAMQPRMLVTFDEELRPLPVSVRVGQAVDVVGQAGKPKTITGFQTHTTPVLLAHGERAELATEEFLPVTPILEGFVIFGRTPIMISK

B1: E3 (p75IC-binding protein encoded by clone E3) (other)
chain: TFKIRMEPDETVKVLKEKIEAEKGRDAFPVAGQKLIYAGKILSDDVPIRDYRIDEKNFVVVMVTKTKAGQGTSAPPEASPTAAPESSTSFPPAPTSGMSHPPPAAREDKSPSEESTPTPEQEPCLZ
notes: GAL4 part not written; for coprecipitation expressed in HeLa cells from pUHD10-3
With B1, the binding result in [1] is on record as “no binding”.

B2: truncated p55-IC from which the death domain had been deleted (construct 206-328) (receptor)
chain: RYQRWKSKLYSIVCGKSTPEKEGELEGTTTKPLAPNPSFSPTPGFTPTLGFSPVPSSTFTSSSTYTPGDCPNFAAPRREVAPPYQGADPILATALASDPIPNPLQKWEDSAHKPQSLDTDDPA
notes: GAL4 part not written
As to B2, the binding result in data set [2] is reported as “binds”.

B3: C terminally truncated p55-IC (construct 206-308) (receptor)
chain: RYQRWKSKLYSIVCGKSTPEKEGELEGTTTKPLAPNPSFSPTPGFTPTLGFSPVPSSTFTSSSTYTPGDCPNFAAPRREVAPPYQGADPILATALASDPIPNP
notes: GAL4 part not written
On to B3, for which the binding result in data set [2] is recorded as “binds”.

Consider B4, for which the binding result in [3] was “binds”; in data set [4], “no binding (tested: no development of color within 24 h)”; in data set [5], “no binding (tested: no development of color within 24 h)”; in data set [6], “binds”.

B5: 55.3 (protein fragment 55.3 of the p55IC, residues 277-426) (receptor)
chain: NFAAPRREVAPPYQGADPILATALASDPIPNPLQKWEDSAHKPQSLDTDDPATLYAVVENVPPLRWKEFVRRLGLSDHEIDRLELQNGRCLREAQYSMLATWRRRTPRREATLELLGRVLRDMDLLGCLEDIEEALCGPAALPPAPSLLR
On to B5, for which the “Lac Z Activity in Liquid Culture Assay” value in data set [7] was found to be 0.04; in data set [8], 0; with pGBT9 (vector alone) [9], 0.

B6: p55-IC construct from which both the death domain and a membrane proximal part were deleted (construct 243-328) (receptor)
chain: SFSPTPGFTPTLGFSPVPSSTFTSSSTYTPGDCPNFAAPRREVAPPYQGADPILATALASDPIPNPLQKWEDSAHKPQSLDTDDPA
notes: GAL4 part not written
Take B6: the binding result in [2] is reported as “binds”.

B7: 55.1 (protein fragment 55.1 of the p55IC, residues 328-426, the death domain) (receptor)
chain: ATLYAVVENVPPLRWKEFVRRLGLSDHEIDRLELQNGRCLREAQYSMLATWRRRTPRREATLELLGRVLRDMDLLGCLEDIEEALCGPAALPPAPSLLR
notes: also called death domain of human p55-R
Turning to B7, in the data set with pGBT9 (vector alone) [10], the binding result is on record as “no binding”. In addition, the “Lac Z Activity in Liquid Culture Assay” value turned out to be 0.65 in [7], 0 in data set [8] and 0 with pGBT9 (vector alone) [9].

B8: mouse Fas/APO1 intracellular domain (FAS-IC, residues 166-306) (receptor, UniProt P25446 187-327, looked up)
chain: RKYRKRKCWKRRQDDPESRTSSRETIPMNASNLSLSKYIPRIAEDMTIQEAKKFARENNIKEGKIDEIMHDSIQDTAEQKVQLLLCWYQSHGKSDAYQDLIKGLKKAECRRTLDKFQDMVQKDLGKSTPDTGNENEGQCLE
notes: range 166-306; GAL4 hybrid constructs; also called murine FAS-IC; mouse FAS-IC
With B8, in data set [11], the binding result is on record as “binds”.

B9: E19 (p75IC-binding protein encoded by clone E19) (other)
chain: EAAGRERERTLEYAEAHAFKSPSKENKKKDKDMLEDKFKSNNLEREQEQLDRIVKESGGKLTRRLVNSQCEFERRKPDGTTTLGLLHPVDPIVGEPGYCPVRLGMTTGRLQSGVNTLQGFKEDKRNKVTPVLYLELWAPTVLYAPHYDSTFANYQQGLI
notes: HeLa cDNA clone in pGAD-GH; GAL4 part not written
Turning to B9, in [1], the binding result is reported as “no binding”.

B10: protein encoded by the 230 clone (other)
chain: GPIREAGLAGWLALGCSGPPAEAAGGAGEPWPQHSGKGQLAGRNAWVKKRKAPRENSPGVRSCRASGRASRPHGDPFLLTLPRARHPVTLNVTIQVSLKQRNVRFNTPFRRGEN
notes: 114 amino acid residues; HeLa cDNA clone in pGAD-GH; GAL4 part not written
On to B10, for which the binding result in data set [1] is “no binding”.
